Three substances from paper PMC4838342 can be followed below.

One assay deals with MBP H3 116–135 (human). In words: ITC; MicroCal iTC200; sNASP (180, 150, 100 μM) in the syringe injected into MBP H3 116–135 (30, 15, 10 μM) in the cell; 20 mM Hepes-KOH pH 7.5, 200 mM sodium chloride; one-site model. A general note: Isothermal titration calorimetry measures the heat released or taken up as one component is titrated into another.
A further assay concerns the target mCherry-LacI-H3 (UniProt P68431). In words: F2H (live cell imaging, recruitment to LacO array). The note with it: n=20; parent: est. 1.7; read off a plot.

By Kd is commonly meant the equilibrium constant for the complex coming apart. In general, stoichiometry N refers to a count of units in the complex or per binding partner. “sNASP (from UniProt P49321-2 1-449) (natural protein; other documents disagree on this pair)”: in the assay with MBP H3 116–135 (human), the Kd was in the range of 47 to 68 nM and the stoichiometry N was 1.

Turning to “EGFP-sNASP (from UniProt P49321-2) E211A; E215A; E217A”, in the assay with mCherry-LacI-H3, the other: enrichment ratio amounted to 1.2.

With “EGFP-sNASP (from UniProt P49321-2) E246A; Y249S; L253S”, the other: enrichment ratio with mCherry-LacI-H3 was 1.1.
